Test results published in patent US20020053092.

Tested on: MeCP2 (Homo sapiens)
Assay: cell_activity
Details: 5mC at CpG (SssI); S2 cells with Sp1; methylated promoter alone repressed 3-fold; binding inferred from repression

cyclin A1 promoter, SssI methylated
activity (fold repression): 12
